This is an account of results in patent US20210301025A1 (published 2021).

Residue numbers refer to the chain shown, from its start. Numbers in names are those of the source.

Test [1] concerns the target T1, EGFR (form used in the assay not stated) (human, UniProt P00533 25-645, limits assumed). As to the kind of experiment: ELISA, NEM conjugate, 10 nM. A general note: ELISA stands for enzyme-linked immunosorbent assay.
Test [2] deals with T1, EGFR (form used in the assay not stated). As to the kind of experiment: ELISA, NEM conjugate, 100 nM.
Test [3] shares this target. As to the kind of experiment: ELISA, NEM conjugate, 500 nM.

B1: P54AR4-83v2 R18C, NEM conjugate (designed binder, not shown: small tags and cut ends)
chain: LPAPKNLVVSEVTEDSACLSWDDPWAFYESFLIQYQESEKVGEAIVLTVPGSERSYDLTGLKPGTEYTVSIYGVHNVYKDTNMRGLPLSAIFTT
modifications: N-ethyl maleimide (NEM) on Cys 18
Turning to B1, the “binding relative to P54AR4-83v2 parent” value in test [1] is 0.86 ratio; in test [2], 1.05 ratio; in test [3], 0.94 ratio.

B2: P54AR4-83v2 R84C, NEM conjugate (designed binder, not shown: small tags and cut ends)
chain: B1 chain with C18R, R84C
modifications: N-ethyl maleimide (NEM) on Cys 84
With B2, the “binding relative to P54AR4-83v2 parent” value in test [1] is 0.91 ratio; in test [2], 1.04 ratio; in test [3] it was 0.98 ratio.

B3: P54AR4-83v2 R54C, NEM conjugate (designed binder, not shown: small tags and cut ends)
chain: B1 chain with C18R, R54C
modifications: N-ethyl maleimide (NEM) on Cys 54
For the molecule B3, the “binding relative to P54AR4-83v2 parent” value in test [1] is 0.89 ratio; in test [2], 1.01 ratio; in test [3] it was 0.93 ratio.

B4: P54AR4-83v2 S70C, NEM conjugate (designed binder, not shown: small tags and cut ends)
chain: B1 chain with C18R, S70C
modifications: N-ethyl maleimide (NEM) on Cys 70
notes: also called 570C
In the case of B4, the “binding relative to P54AR4-83v2 parent” value in test [1] was determined as 0.86 ratio; in test [2], 1.01 ratio; in test [3], 0.93 ratio.

B5: P54AR4-83v2 S20C, NEM conjugate (designed binder, not shown: small tags and cut ends)
chain: B1 chain with C18R, S20C
modifications: N-ethyl maleimide (NEM) on Cys 20
notes: also called 520C
For B5, the results for the “binding relative to P54AR4-83v2 parent” value in test [1], in test [2] and in test [3] were 0.81 ratio, 1.05 ratio and 0.91 ratio, respectively.

B6: P54AR4-83v2 S30C, NEM conjugate (designed binder, not shown: small tags and cut ends)
chain: B1 chain with C18R, S30C
modifications: N-ethyl maleimide (NEM) on Cys 30
notes: also called 530C
Take B6: the “binding relative to P54AR4-83v2 parent” value is 0.9 ratio in test [1], 1.02 ratio in test [2] and 0.9 ratio in test [3].

B7: P54AR4-83v2 S55C, NEM conjugate (designed binder, not shown: small tags and cut ends)
chain: B1 chain with C18R, S55C
modifications: N-ethyl maleimide (NEM) on Cys 55
In the case of B7, the “binding relative to P54AR4-83v2 parent” value in test [1] was determined as 0 ratio; in test [2], 0 ratio; in test [3], 0.11 ratio.

B8: P54AR4-83v2 S89C, NEM conjugate (designed binder, not shown: small tags and cut ends)
chain: B1 chain with C18R, S89C
modifications: N-ethyl maleimide (NEM) on Cys 89
With B8, the “binding relative to P54AR4-83v2 parent” value worked out at 0.97 ratio in test [1], 1.02 ratio in test [2] and 1.04 ratio in test [3].

B9: P54AR4-83v2 S52C, NEM conjugate (designed binder, not shown: small tags and cut ends)
chain: B1 chain with C18R, S52C
modifications: N-ethyl maleimide (NEM) on Cys 52
B9: the “binding relative to P54AR4-83v2 parent” value in test [1] is 0.78 ratio; in test [2], 1.03 ratio; in test [3], 0.93 ratio.

B10: P54AR4-83v2 S38C, NEM conjugate (designed binder, not shown: small tags and cut ends)
chain: B1 chain with C18R, S38C
modifications: N-ethyl maleimide (NEM) on Cys 38
Regarding B10, the “binding relative to P54AR4-83v2 parent” value in test [1] was determined as 0.8 ratio; in test [2], 0.93 ratio; in test [3], 0.82 ratio.

B11: P54AR4-83v2 S16C, NEM conjugate (designed binder, not shown: small tags and cut ends)
chain: B1 chain with S16C, C18R
modifications: N-ethyl maleimide (NEM) on Cys 16
As for B11, the “binding relative to P54AR4-83v2 parent” value in test [1] was found to be 0.88 ratio; in test [2], 1.05 ratio; in test [3] it was 0.63 ratio.

B12: P54AR4-83v2 S10C, NEM conjugate (designed binder, not shown: small tags and cut ends)
chain: B1 chain with S10C, C18R
modifications: N-ethyl maleimide (NEM) on Cys 10
Consider B12, for which the results for the “binding relative to P54AR4-83v2 parent” value in test [1], in test [2] and in test [3] were 0.83 ratio, 1.07 ratio and 0.96 ratio, respectively.

B13: P54AR4-83v2 T13C, NEM conjugate (designed binder, not shown: small tags and cut ends)
chain: B1 chain with T13C, C18R
modifications: N-ethyl maleimide (NEM) on Cys 13
On to B13, for which the “binding relative to P54AR4-83v2 parent” value in test [1] was 0.87 ratio; in test [2] it was 1.04 ratio; in test [3], 0.9 ratio.
